Measurements published in article PMC2920321, “Characterization of ftsZ Mutations that Render Bacillus subtilis Resistant to MinC” (PLoS ONE, 2010).

B1: wild type FtsZ (Bacillus subtilis) [B. subtilis] / itself (parent)
chain: MLEFETNIDGLASIKVIGVGGGGNNAVNRMIENEVQGVEYIAVNTDAQALNLSKAEVKMQIGAKLTRGLGAGANPEVGKKAAEESKEQIEEALKGADMVFVTAGMGGGTGTGAAPVIAQIAKDLGALTVGVVTRPFTFEGRKRQLQAAGGISAMKEAVDTLIVIPNDRILEIVDKNTPMLEAFREADNVLRQGVQGISDLIATPGLINLDFADVKTIMSNKGSALMGIGIATGENRAAEAAKKAISSPLLEAAIDGAQGVLMNITGGTNLSLYEVQEAADIVASASDQDVNMIFGSVINENLKDEIVVTVIATGFIEQEKDVTKPQRPSLNQSIKTHNQSVPKREPKREEPQQQNTVSRHTSQPADDTLDIPTFLRNRNKRG

Variants of: B1
Assay: sedimentation assay (ultracentrifugation)
Settings: with itself, 10 µM FtsZ, 50 mM Hepes/NaOH, 50 mM KCl, 10 mM MgCl2, pH 7.5, 30°C, 5 min, read off a plot

| Variant | response (% FtsZ in pellet) (1 mM GDP (control)) | response (% FtsZ in pellet) (1 mM GTP) |
| --- | --- | --- |
| chain 1 A285T | 28 | 25 |
| chain 1 L302P Q353R | 18 | 29 |
| chain 1 S219L | 16 | 51 |
